Test results: patent US12552866B2, “Internalizing binding molecules targeting receptors involved in cell proliferation or in cell differentiation” (LinXis B.V., priority 2019, dated 2026)
Where two headings read alike, the source gives them in different places.

Tests used:
PDGFRB ECD = molecular target: T1, PDGFRB ECD (Homo sapiens, UniProt P09619); test: Competition ELISA with SP02P and SP26P on PDGFRB ECD; type: binding; conditions: versus SPO2P
T1 construct: assay with SP02P and SP26P on PDGFRB ECD
Protocol: Competition ELISAs were carried out to determine whether the hPDGFRB specific binders (FIG. 5) and rPDGFRB specific binders (FIG. 6) recognize distinct epitopes on hPDGFRB or rPDGFRB, respectively. The hPDGFRB binding VHHs SPO2P, SP05P, SP12P and SP14P and the rPDGFRB binder SP26P were conjugated to IRDye800CW (VHH-IRDye800CW, conjugation method as described in example 9.2) and each conjugated VHH was mixed with unconjugated competitor in trifold serial dilutions and incubated on immobilized […]. Two VHHs share (part of) the same epitope when the fluorescence signal of the VHH-IRDye800CW decreases upon increasing concentration of unconjugated VHH. Furthermore, using a similar method as described in section 5.1, binding epitope competition between the hPDGFRB binding VHH SPO2P and rPDGFRB binding VHH

[1] = molecular target: rat PDGFRB ectodomain (ECD); test: Affinity (KD in nM) | PDGFRβ ECD
Protocol: (§1) Table printed on a drawing sheet, FIG. 6
Head of the field: Affinity (KD in nM) | PDGFRβ ECD
(§2) The patent's description of the figure: FIG. 6. Amino acid sequence of rat PDGFRB VHHs (CDRs underlined). Affinities are measured on rat PDGFRB ectodomain (ECD) and squamous cell carcinoma cells transfected with rat PDGFRB receptor (SCC-rPDGFRB). Data of the competition assays is included to categorize the VHHs in different epitope groups.
(§3) First copying reader's note: Each sequence is printed over two lines and joined here by a blank; the underlining that marks the CDRs is not reproduced.
Where the first naming reader finds the target: description_of_the_figure: Affinities are measured on rat PDGFRB ectodomain (ECD) and squamous cell carcinoma cells transfected with rat PDGFRB receptor (SCC-rPDGFRB).

rat PDGFRB receptor = molecular target: T2, rat PDGFRB receptor (Rattus norvegicus, UniProt Q05030); test: Affinity (KD in nM) | SCC-rPDGFRβ cells
T2 construct: GFP; expressed in transfected cells; host or cells: SCC VII cells
Protocol: as §1
Head of the field: Affinity (KD in nM) | SCC-rPDGFRβ cells
as §2, §3
Where the first naming reader finds the target: description_of_the_figure: squamous cell carcinoma cells transfected with rat PDGFRB receptor (SCC-rPDGFRB)

hIGF2R-ECD = molecular target: T3, hIGF2R-ECD (Homo sapiens, UniProt P11717); test: Binding assay / titration ELISA on recombinant hIGF2R-ECD; conditions: KD+SEM, n=2, read-out: calculated affinity (KD)
T3 construct: recombinant human extracellular domain of IGF2R (hIGF2R-ECD)
Protocol: The 15 unique hIGF2R binders (Example 1.1, FIG. 2) were produced and purified as described in examples 2 and 3. The apparent affinities were determined with binding assays on hIGF2R-ECD. Briefly, three-fold serial VHH dilutions, starting from 1 μM, were added onto hIGF2R-ECD coated plates. After 2 hours of incubation, plates were washed and bound VHH was detected using a VHH-specific IgG antibody, followed by an IRD800CW-conjugated IgG-specific antibody. […] VHH 13F11 was also produced with a C-terminal free cysteine and conjugated using maleimide chemistry to Alexa Fluor 647 (13F11-A647 in FIG. 8A, conjugation method as described in example 9.2). A titration ELISA (direct read out at 647 nm) with this construct was carried out on hIGF2R-ECD to determine whether the affinity was affected after site directed conjugation (FIG. 8B). The KD and Bmax were calculated in Graphpad (version 8.3), using one-site specific binding analysis (FIG. 8C).
Based on their high affinity and binding to non-overlapping receptor epitopes, VHHs 13F11 and 13E8 were selected for the design of biparatopic and bivalent VHH constructs. Two VHHs were fused with a flexible linker, consisting of three Gly-Gly-Gly-Gly-Ser repeats (FIG. 8A). The sequences were codon optimized for expression in E. coli and obtained as synthesized DNA fragments from GeneArt. The DNA fragments encoding VHHs were cloned into a vector pET28-based vector introducing a C-terminal free cysteine for site-directed conjugation and His6 tag for IMAC purification (FIG. 8A). The constructs were produced and purified as described in example 3. The constructs were conjugated to Alexa Fluor 647 (conjugation method as described in example 9.2) and titration ELISAs on recombinant hIGF2R-ECD (as described in example 4.1) were performed to determine the KD and Bmax (calculated in Graphpad (version 8.3), using one-site specific binding analysis) (FIG. 8C).
Next, 13F11-13E8 was genetically re-engineered to include an in vivo half-life extender in the form of an albumin binding domain (ABD) as described by Johansson et al (Structure, specificity, and mode of interaction for bacterial albumin-binding modules, J. Biol. Chem. 2002 (277): 8114-8120) and subsequently produced and purified as described in Example 3. Subsequently, 13F11-13E8-ABD was conjugated to IRDye800CW (F11E8-ABD-IRD800, conjugation method as described in example 9.2) and the binding affinities of the biparatopic VHH as well as the ABD unit was determined. […] The binding affinity (KD) of F11-E8-ABD-IRD800 to rat serum albumin (RSA) was 30 nM and to mouse serum albumin (MSA) and human serum albumin (HSA) the binding affinity was approximately 200 nM.

[2] = system: A549 cells (IGF2R positive); test: Internalization in A549 cells (acid wash, confocal); type: cell-based, human; conditions: 25 nM VHH conjugated to Alexa Fluor 647
Protocol: (§4) To assess if monovalent 13F11 and biparatopic 13F11-13E8 are internalized in the hIGF2R expressing cells, A549 cells (FIG. 16A) and NIH 3T3 2.2 cells transiently transfected with hIGF2R (FIG. 16B) were incubated with 25 nM VHH conjugated to Alexa Fluor 647 (conjugation method as described in example 9.2). A Mouse anti-IGF2R mAb was included to detect IGF2R expression on the hIGF2R transfected cells NIH 3T3 2.2 (FIG. 16B, right column), the mAb was detected with a goat anti-mouse mAb conjugated to Alexa Fluor 555. Additionally, mock transfected NIH 3T3 2.2 cells were incubated with 13F11 and 13F11-13E8 (FIG. 16C). […]
(§5) (FIG. 10D). […] The rate of internalization (endocytic rate constant, ke) of biparatopic constructs 13F11-13E8 and 13E8-13F11 was determined with a kinetic internalization assay on SCC-VII cells transfected with hIGF2R and rIGF2R. […] Subsequently, cells were washed with cold PBS and the non-internalized VHH construct (bound fraction) was separated from the internalized construct (internalized fraction) using an acid-wash, as described above, after which the fluorescence of both fractions were measured. […] Internalization was also observed in rIGF2R expressing SCC cells as a clear increase in fluorescence over time can be shown in FIG. 17 (ke around 0.7 min-1).

[3] = system: NIH 3T3 2.2 cells transiently transfected with hIGF2R; test: Internalization in NIH 3T3 2.2 cells transiently transfected with hIGF2R; type: cell-based, human; conditions: 25 nM VHH conjugated to Alexa Fluor 647
Protocol: as §4, §5

[4] = system: mock transfected NIH 3T3 2.2 cells; test: Internalization in mock transfected NIH 3T3 2.2 cells; type: cell-based; conditions: 25 nM VHH conjugated to Alexa Fluor 647
Protocol: as §4, §5

[5] = system: primary activated rat hepatic stellate cells (HSCs); test: Binding (staining) to primary activated rat hepatic stellate cells; type: cell-based; conditions: 50 nM, HSCs from BDL rat, 6 days in culture
Protocol: The cross-reactivity of F11-E8-ABD was further evaluated in binding experiments to primary activated rat hepatic stellate cells (HSCs) by conjugating the construct to Alexa Fluor 488 (FE-A-A488, conjugation method as described in example 9.2). Activated HSCs were obtained from a perfused liver of a cirrhotic bile duct ligated (BDL) rat, the HSCs were isolated using density gradient centrifugation. Cells were kept in culture for 6 days to allow complete activation and then stained with 50 nM FE-A-A488. Activation was determined by an additional staining with alpha-smooth muscle actin (a-SMA).

rPDGFRB = molecular target: T4, rPDGFRB (Rattus norvegicus, UniProt Q05030); test: Binding assay on SCC VII cells transfected with rPDGFRB; conditions: IRDye800CW conjugate, read-out: binding affinity (KD) to rPDGFRB
T4 construct: GFP; expressed in transfected cells; host or cells: SCC VII cells
Protocol: (§6) Based on their high affinity and binding to non-overlapping hPDGRB epitopes, VHHs SPO2P, SP12P SP14P and SP26P were selected for the design of biparatopic VHH constructs and produced in a similar way as described in example 6.1. (FIG. 15A). The binding affinities of the biparatopic constructs were determined with an ELISA assay with the periplasm (FIG. 15A). Moreover, based on their high affinity and binding to non-overlapping rPDGRB epitopes, VHHs SP26P and SP28P were selected for the design of a biparatopic VHH construct and produced in a similar way as described in example 6.1. The formed biparatopic SP28P-SP26P was conjugated to IRDye800CW (SP28P-SP26P-IRDye800CW conjugation method as described in example 9.2) and subjected to a binding assay SCC VII cells transfected with hPDGFRB, rPDGFRB or hIGF2R were performed (FIG. 15B). […] In order to create a biparatopic VHH construct which is cross-reactive for hPDGFRB and rPDGFRB, VHH SPO2P binding to hPDGFRB and VHH SPO26P binding to rPDGFRB were selected and the biparatopic construct SPO2P-SP26P was produced in a similar way as described in example 6.1. (FIG. 15C). Construct SPO2P-SP26P was conjugated to IRDye800CW (SP02P-SP26P-IRDye800CW, conjugation method as described in example 9.2) and subjected to bindings assays on SCC VII cells transfected with hPDGFRB, rPDGFRB or hIGF2R were performed (FIG. 15C). […]

hPDGFRB = molecular target: T5, hPDGFRB (Homo sapiens, UniProt P09619); test: Binding assay on SCC VII cells transfected with hPDGFRB; conditions: relative to rPDGFRB
T5 construct: GFP; expressed in transfected cells; host or cells: SCC VII cells
Protocol: as §6

T4 sequence (Q05030 32-1097): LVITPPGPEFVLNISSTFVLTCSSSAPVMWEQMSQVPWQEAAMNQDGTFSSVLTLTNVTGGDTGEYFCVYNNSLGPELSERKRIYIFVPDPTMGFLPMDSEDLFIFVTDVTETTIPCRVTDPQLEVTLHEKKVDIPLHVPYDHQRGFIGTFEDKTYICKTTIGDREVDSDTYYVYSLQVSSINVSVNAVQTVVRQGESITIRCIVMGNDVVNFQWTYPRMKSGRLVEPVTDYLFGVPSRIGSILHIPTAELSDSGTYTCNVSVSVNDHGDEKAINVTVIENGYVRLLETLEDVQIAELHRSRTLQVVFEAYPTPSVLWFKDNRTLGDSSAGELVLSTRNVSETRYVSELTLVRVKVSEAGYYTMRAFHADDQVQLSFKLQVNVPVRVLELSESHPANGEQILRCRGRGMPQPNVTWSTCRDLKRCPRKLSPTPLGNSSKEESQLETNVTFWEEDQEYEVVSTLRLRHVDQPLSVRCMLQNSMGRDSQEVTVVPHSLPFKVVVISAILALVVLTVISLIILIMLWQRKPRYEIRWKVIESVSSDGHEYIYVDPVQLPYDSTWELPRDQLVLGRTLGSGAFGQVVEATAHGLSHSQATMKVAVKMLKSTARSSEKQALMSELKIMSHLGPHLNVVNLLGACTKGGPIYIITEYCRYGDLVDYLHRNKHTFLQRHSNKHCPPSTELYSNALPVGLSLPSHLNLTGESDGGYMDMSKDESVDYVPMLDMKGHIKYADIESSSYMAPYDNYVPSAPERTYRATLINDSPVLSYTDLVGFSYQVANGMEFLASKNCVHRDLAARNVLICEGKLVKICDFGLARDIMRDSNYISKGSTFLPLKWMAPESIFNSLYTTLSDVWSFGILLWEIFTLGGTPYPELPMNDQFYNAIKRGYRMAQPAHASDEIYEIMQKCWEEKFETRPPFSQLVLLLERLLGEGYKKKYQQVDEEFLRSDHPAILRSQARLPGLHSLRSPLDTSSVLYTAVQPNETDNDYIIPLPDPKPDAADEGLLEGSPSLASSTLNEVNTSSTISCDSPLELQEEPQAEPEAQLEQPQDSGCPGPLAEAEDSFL
T5 sequence (P09619 33-1106): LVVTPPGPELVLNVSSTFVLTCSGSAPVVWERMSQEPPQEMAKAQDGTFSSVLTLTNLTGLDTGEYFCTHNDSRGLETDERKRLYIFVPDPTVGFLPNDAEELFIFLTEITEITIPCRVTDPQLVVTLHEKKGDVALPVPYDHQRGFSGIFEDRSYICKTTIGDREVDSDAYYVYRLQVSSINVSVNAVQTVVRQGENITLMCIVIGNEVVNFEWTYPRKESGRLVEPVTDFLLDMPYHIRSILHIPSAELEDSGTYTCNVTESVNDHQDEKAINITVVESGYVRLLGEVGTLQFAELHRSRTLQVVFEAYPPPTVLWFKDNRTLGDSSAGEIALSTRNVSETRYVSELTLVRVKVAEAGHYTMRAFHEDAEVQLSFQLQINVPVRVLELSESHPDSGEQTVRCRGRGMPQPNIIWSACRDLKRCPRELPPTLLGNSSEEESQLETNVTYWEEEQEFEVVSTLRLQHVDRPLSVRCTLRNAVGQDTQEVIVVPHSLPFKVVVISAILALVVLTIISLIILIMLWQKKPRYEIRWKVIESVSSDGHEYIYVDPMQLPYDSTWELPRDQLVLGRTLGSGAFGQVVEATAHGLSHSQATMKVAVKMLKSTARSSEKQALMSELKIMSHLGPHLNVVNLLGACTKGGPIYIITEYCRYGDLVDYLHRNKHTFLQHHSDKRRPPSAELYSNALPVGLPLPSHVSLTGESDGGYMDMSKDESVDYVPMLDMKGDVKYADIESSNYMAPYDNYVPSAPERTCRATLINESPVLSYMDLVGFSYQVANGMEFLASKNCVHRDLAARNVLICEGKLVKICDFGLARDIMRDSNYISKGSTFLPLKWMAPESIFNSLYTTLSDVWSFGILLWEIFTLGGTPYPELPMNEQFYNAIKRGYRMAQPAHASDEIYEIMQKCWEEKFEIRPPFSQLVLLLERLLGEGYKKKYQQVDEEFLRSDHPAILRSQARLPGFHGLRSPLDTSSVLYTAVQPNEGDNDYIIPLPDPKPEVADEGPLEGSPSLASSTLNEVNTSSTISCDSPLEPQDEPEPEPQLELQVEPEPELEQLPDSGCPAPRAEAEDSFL
T1 sequence (P09619 33-532): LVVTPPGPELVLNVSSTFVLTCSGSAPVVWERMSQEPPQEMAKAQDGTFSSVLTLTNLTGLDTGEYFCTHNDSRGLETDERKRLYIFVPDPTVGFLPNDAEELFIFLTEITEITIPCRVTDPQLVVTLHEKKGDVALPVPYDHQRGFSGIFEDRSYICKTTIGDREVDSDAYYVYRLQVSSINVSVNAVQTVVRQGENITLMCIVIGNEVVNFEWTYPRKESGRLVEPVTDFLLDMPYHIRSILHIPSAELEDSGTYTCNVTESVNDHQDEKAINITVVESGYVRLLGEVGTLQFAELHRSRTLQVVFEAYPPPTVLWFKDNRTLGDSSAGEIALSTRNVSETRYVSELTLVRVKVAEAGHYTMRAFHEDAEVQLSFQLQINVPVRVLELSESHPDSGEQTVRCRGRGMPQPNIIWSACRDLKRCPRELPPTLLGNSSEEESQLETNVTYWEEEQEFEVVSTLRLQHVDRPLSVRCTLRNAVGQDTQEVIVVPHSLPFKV

B1: SP26P: rPDGFRB binding VHH, SEQ ID NO: 153 (protein, listed as Lama glama)
VHH: EVQLVESGGGLVQAGGSLRLSCAASGRSFSSSVMGWFRQTPGKEREFVAATRWTAASTHYADSVKGRFTISRDHAENAVFLQMNSLKPEDTAVYYCAAGNYLDTAQYRYNYWGQGTQVTVSS
What does the source list for B1?
binding epitope competition between SPO2P and SP26P (PDGFRB ECD): No competition; Kd [1]: 5.1 nM; Kd (rat PDGFRB receptor): 0.3 nM

B2: 13F11: VHH targeting IGF2R, SEQ ID NO: 273 (protein, listed as Lama glama)
VHH: EVQLVESGGRLVQPGDSLRLSCAASGRTFSDNAMGWFRQAPGKERRFVAGISWAGGSTYYSDSVKGRFTISRDNAKNTVYLQMNSLKPEDTAVYYCAAGLRAWVQRMPKDYNYWGQGTQVTVSS
With B2 as the molecule, how does the Kd (hIGF2R-ECD; construct conjugated to Alexa Fluor 647, direct read out) read?
Its Kd is 1 ± 0.61 nM.

And the Kd (hIGF2R-ECD; unconjugated VHH, one-site specific binding)?
Its Kd is 0.23 ± 0.05 nM.

And the “internalization in A549 cells” value [2]?
Its value is “no internalization was observed”.

And the “internalization in hIGF2R transfected NIH 3T3 2.2 cells” value [3]?
Its value is “did internalise”.

And the “internalization in mock transfected NIH 3T3 2.2 cells” value [4]?
Its value is “did not internalize”.

B3: FE-A-A488: 13F11-13E8-ABD conjugated to Alexa Fluor 488 (conjugate)
chain: EVQLVESGGRLVQPGDSLRLSCAASGRTFSDNAMGWFRQAPGKERRFVAGISWAGGSTYYSDSVKGRFTISRDNAKNTVYLQMNSLKPEDTAVYYCAAGLRAWVQRMPKDYNYWGQGTQVTVSSGGGGSGGGGSGGGGSEVQLVESGGGLVQAGGSLRLSCAASRSISPMGWYRQAPGKQRELVAIMPSSGPPIYADSVQGRFTISRDNAKNTVYLQMNSLKPEDTAVYYCNVGGGYWGQGTQVTVSS
modifications: left off: large carriers; small tags and cut ends
B3 was tested. Which “binding to activated rat HSCs” value [5] did it give?
Its value is “binds to rat HSCs”.

B4: SP28P-SP26P-IRDye800CW: biparatopic SP28P-SP26P conjugated to IRDye800CW (conjugate)
chain: EVQLVESGGGLVQAGGSLRLSCAASGSIVSFNGINWYRQAPGKQREWVGGITQGGNTMYADSVRGRFTISRDNTKNTMYLQMNSLKPEDTAVYYCRRPPVASWGQGTQVTVSSGGGGSGGGGSGGGGSEVQLVESGGGLVQAGGSLRLSCAASGRSFSSSVMGWFRQTPGKEREFVAATRWTAASTHYADSVKGRFTISRDHAENAVFLQMNSLKPEDTAVYYCAAGNYLDTAQYRYNYWGQGTQVTVSS
modifications: left off: small tags and cut ends
Which results are given for B4?
Kd (rPDGFRB): < 1 nM; binding affinity to hPDGFRB (hPDGFRB): a few orders of magnitude lower
